The experiment addresses PB2-C (amino acids 247 to 736) from influenza A/Vietnam/1203/2004 (H5N1) virus (influenza A/Vietnam/1203/2004 (H5N1)). Nature of the experiment: SEC + other: SAXS.

The term stoichiometry N denotes a count of units in the complex or per binding partner.

For “Rab11a_(1-173) (truncated Rab11a, GST tag removed) (from UniProt P62491 1-173) (domain or fragment)”, the stoichiometry N stood at 1.

The record behind these values is publication PMC8906434.
